The values below come from patent US20230303623A1, “PEPTIDES AND METHODS OF USE” (REALTA LIFE SCIENCES, INC., priority 2020, published 2023).

Bridges are numbered along the chain shown (N, C = ends). Where no end group is shown, it is not given here. [ ]: non-standard residue; d: D form. R8 = C=CCCCCCC[C@@](C)(N)C(=O)O; S5 = C=CCCC[C@](C)(N)C(=O)O; Sar = CNCC(=O)O

The target of experiment [1] is T1, CTLA-4 (Homo sapiens, UniProt P16410).
T1 sequence (P16410 36-223): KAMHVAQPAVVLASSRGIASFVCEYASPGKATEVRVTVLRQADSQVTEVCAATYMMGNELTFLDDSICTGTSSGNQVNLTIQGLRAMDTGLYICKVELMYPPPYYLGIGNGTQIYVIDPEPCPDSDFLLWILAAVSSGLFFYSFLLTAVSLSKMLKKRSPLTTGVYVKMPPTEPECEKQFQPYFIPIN
Nature of the experiment: Peptide binding to immobilized CTLA-4, ELISA plate-based assay. To be noted: increasing amounts of peptide. As to the method:
(§1) RLS-0134 and RLS-0150 were allowed to bind to immobilized CTLA-4, PD-1, PD-L1 on the surface of the plate. Bound C1q and MAC-1 served as a positive and negative control for peptide binding, respectively. Increasing amounts of peptides were added to the plates followed by a rabbit polyclonal antibody that recognizes the peptides and then a secondary anti-rabbit antibody conjugated with HRP. The plate was then developed by addition of TMB as the substrate for the colorimetric assay.
(§2) The inventors further evaluated if RLS-0134 and RLS-0150 could bind to the well characterized checkpoint inhibitor, cytotoxic T-lymphocyte associated protein 4 (CTLA-4 aka CD152). […] Therefore, the pharmaceutical inhibition of CTLA-4 or its ligand has been considered a promising strategy by many cancer researchers and could be a therapeutic target in cancer immunotherapy. To ascertain the ability of select PIC1 peptides to bind CTLA-4, a binding assay was performed in which these proteins were coated on a microtiter plate followed by incubation with increasing amounts of either RLS-0134 and RLS-0150. Plates coated with PD-1, PD-L1 and C1q served as a positive control for peptide binding whereas MAC-1 served as a negative control for peptide binding.

Experiment [2] concerns the target T2, C1q (Homo sapiens, UniProt P02745+P02746+P02747).
T2 construct: purchased Complement Technology (Tyler, TX)
Nature of the experiment: C1q binding ELISA-type assay. To be noted: compared to parent peptide. The protocol: The C1q binding assay was performed as previously described. Briefly, an Immunlon-2 HB ELISA plate was coated with 1 μg/ml C1q in bicarbonate buffer overnight at 4° C. The plates were washed with PBS-T (phosphate buffered saline+0.1% Tween) and then blocked with 1% gelatin/PBS for 2 hours at room temperature. After washing, the plates were incubated with the peptides starting at 2.5 mg/ml and then serially diluted in 1% gelatin/PBS for 1 hour at room temperature followed by washing. Plates were then probed with rabbit antibody raised against the lead peptide […] (SEQ ID NO: 2) that lacked PEGylation at 1:1000 in 1% gelatin/PBS for 1 hour at room temperature followed by a goat anti-rabbit HRP (Sigma Aldrich, St Louis, MO) at 1:1,000 in 1% gelatin/PBS for 1 hour at room temperature with a washing step in between. After addition of TMB substrate solution to the wells, the reaction was stopped using 1N H2SO4, and the plate read on a BioTek Synergy HT plate reader at 450 nm.
The astrovirus capsid protein and the PIC1 molecules derived from it inhibit classical complement pathway activation by binding to the pattern recognition molecule C1q. The inventors next tested peptide variant binding to C1q in an ELISA-type assay in which C1q is used as the capture substrate and bound peptide detected with a rabbit polyclonal antibody against the peptide portion of PA-dPEG24 ([…]-d24; SEQ ID NO: 3). Binding curves were derived for the stapled and D-amino acid peptides based on the PA-I8Sar and PA-C9Sar (FIG. 5A-5C) backbone, from which half-maximal binding concentrations were calculated (FIGS. 2A and B, respectively). […] For the peptides based on the PA-C9Sar backbone, C1q was bound to a greater degree than the parent peptide (FIG. 2B).

Experiment [3] has as its target PD-L1 (Homo sapiens, UniProt Q9NZQ7). Put plainly: Peptide binding to immobilized PD-L1, ELISA plate-based assay. The note with it: increasing amounts of peptide. As to the method: as §1, §2
Experiment [4] concerns antibody-initiated complement activation (lysis of AB human red blood cells by type O serum). Nature of the experiment: ABO incompatibility hemolytic complement assay (CH50-type). Format: cell-based. The note with it: peptides 0.8 mg/ml (~0.5 mM); compared to parent peptide. The protocol:
FIG. 1A-1B show PIC1 peptides' inhibition of complement activation in an ABO incompatibility assay. […] Inhibition of ABO incompatibility hemolysis in a CH50-type assay. Peptides are at a final concentration of 0.5 mM. Values are represented as a percent of the positive control, which consists of human 0 sera and AB red blood cells in GVBS^++ buffer. Data are the means of n=3 independent experiments±SEM.
For hemolytic complement assays, human red blood cells (RBCs) from type AB donors were purified, washed, and standardized to 1.0×10^9 cells/ml, as previously described. Human sera from type 0 donors at a 15% final concentration was combined with 0.5 mM of the peptides and the volume was brought up to 0.2 ml with GVBS^++ and 5.0×10^7 RBCs. The samples were incubated for 1 hour at 37° C. and then spun at 3,000 rpm for 5 minutes and the supernatant was collected and read at 412 nm. Values are represented as a percent of the positive control, which consists of human 0 sera and AB red blood cells in GVBS^++ buffer.
To assess the extent to which the peptide variants inhibit antibody-initiated complement activation, an ABO incompatibility ex vivo assay was utilized in which purified erythrocytes from a ‘type AB+’ donor are incubated with sera from a ‘type 0’ subject containing anti-A and anti-B antibodies. Peptides were tested at a concentration of 0.8 mg/ml (˜0.5 mM).

For experiment [5], the target named is T3, MPO (Homo sapiens, UniProt P05164).
T3 construct: purchased Lee BioSolutions (Maryland Heights, MO)
Nature of the experiment: MPO activity assay. Format: biochemical. The note with it: compared to parent peptide. As to the method:
The MPO activity assay was performed as previously described. Briefly, peptides were diluted to 12 mg/ml and serially titrated in a 96 well plate at a volume of 0.02 ml. MPO was diluted to 20 μg/ml and 0.02 ml was added to the titrated peptides. TMB (3,30,5,50-tetramethylbenzidine) (0.1 ml) was added to each well for 2 minutes, followed by 0.1 ml of 2.5 N H2SO4 for another 2 minutes, and then read on a 96 well plate reader (BioTek) at 450 nm.
To ascertain the inhibition of MPO activity by the various peptides, a range of concentrations of the stapled peptides and D-amino acid variants were tested (FIG. 3A-3B) and half-maximal activity levels were calculated from the dose-response curves (FIG. 6A-6C, respectively).

Experiment [6] concerns the target MAC-1 (Homo sapiens, UniProt P05107+P11215). Nature of the experiment: Peptide binding to immobilized MAC-1 (negative control), ELISA plate-based assay. The note with it: increasing amounts of peptide; negative control protein. As to the method:
as §1, §2

The nature of experiment [7]: Total Antioxidant Capacity (TAC) assay. To be noted: highest peptide concentration 1.5 mM; compared to parent peptide. As to the method:
As previously reported, the TAC (Total Antioxidant Capacity) Assay (Cell Biolabs, Inc, San Diego, CA) was used to measure the antioxidant capacity of the PIC1 variants based on the reduction of copper (II) to copper (I). The kit protocol was performed per the manufacturer's recommendations.
The antioxidant properties for the PIC1 variants were evaluated in a Total Antioxidant Capacity (TAC) assay, as previously reported. Total antioxidant activity over a range of peptide concentrations were determined for the stapled and the D-amino acid peptides based on the PA-I8Sar and PA-C9Sar backbones (FIG. 4A-4B), with the activity of the highest peptide concentration reported (1.5 mM) (FIG. 5A-5C).

Experiment [8] deals with T2, C1q. Nature of the experiment: Peptide binding to immobilized C1q (positive control), ELISA plate-based assay of Example 3. The note with it: increasing amounts of peptide; positive control protein. The protocol: as §1, §2
In experiment [9] the target is PD-1 (Homo sapiens, UniProt Q15116). Nature of the experiment: Peptide binding to immobilized PD-1, ELISA plate-based assay. The note with it: increasing amounts of peptide. As to the method: as §1, §2
Chain of PD-1 (Q15116 25-288): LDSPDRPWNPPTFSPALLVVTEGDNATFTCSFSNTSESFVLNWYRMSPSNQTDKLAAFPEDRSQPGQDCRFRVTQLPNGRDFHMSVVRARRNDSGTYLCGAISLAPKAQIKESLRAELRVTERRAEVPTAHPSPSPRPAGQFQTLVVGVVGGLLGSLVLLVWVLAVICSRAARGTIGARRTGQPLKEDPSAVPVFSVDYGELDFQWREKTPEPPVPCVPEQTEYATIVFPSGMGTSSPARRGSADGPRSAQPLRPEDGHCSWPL

T2 sequence (P02745 23-245): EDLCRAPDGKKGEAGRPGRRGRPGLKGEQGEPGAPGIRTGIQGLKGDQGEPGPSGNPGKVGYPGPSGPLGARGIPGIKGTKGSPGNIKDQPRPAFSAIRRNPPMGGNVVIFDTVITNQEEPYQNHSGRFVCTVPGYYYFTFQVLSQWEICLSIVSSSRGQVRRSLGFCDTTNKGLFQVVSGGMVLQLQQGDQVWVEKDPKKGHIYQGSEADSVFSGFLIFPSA
T2 sequence (P02746 28-253): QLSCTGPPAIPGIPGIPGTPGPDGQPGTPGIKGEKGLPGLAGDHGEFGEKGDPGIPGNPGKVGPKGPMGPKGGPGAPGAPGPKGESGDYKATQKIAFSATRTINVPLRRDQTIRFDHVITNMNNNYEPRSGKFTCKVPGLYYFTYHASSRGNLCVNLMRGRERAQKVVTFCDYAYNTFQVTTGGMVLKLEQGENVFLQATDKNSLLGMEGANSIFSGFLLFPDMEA
T2 sequence (P02747 29-245): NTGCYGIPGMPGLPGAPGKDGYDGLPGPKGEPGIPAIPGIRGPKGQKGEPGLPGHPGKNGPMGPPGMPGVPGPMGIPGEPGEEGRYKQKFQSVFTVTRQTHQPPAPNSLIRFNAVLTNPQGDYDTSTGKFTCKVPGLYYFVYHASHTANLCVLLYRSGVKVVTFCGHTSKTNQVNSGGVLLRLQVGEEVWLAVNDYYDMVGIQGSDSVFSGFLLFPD
Chain of MAC-1 (P05107 23-769, other chains not shown): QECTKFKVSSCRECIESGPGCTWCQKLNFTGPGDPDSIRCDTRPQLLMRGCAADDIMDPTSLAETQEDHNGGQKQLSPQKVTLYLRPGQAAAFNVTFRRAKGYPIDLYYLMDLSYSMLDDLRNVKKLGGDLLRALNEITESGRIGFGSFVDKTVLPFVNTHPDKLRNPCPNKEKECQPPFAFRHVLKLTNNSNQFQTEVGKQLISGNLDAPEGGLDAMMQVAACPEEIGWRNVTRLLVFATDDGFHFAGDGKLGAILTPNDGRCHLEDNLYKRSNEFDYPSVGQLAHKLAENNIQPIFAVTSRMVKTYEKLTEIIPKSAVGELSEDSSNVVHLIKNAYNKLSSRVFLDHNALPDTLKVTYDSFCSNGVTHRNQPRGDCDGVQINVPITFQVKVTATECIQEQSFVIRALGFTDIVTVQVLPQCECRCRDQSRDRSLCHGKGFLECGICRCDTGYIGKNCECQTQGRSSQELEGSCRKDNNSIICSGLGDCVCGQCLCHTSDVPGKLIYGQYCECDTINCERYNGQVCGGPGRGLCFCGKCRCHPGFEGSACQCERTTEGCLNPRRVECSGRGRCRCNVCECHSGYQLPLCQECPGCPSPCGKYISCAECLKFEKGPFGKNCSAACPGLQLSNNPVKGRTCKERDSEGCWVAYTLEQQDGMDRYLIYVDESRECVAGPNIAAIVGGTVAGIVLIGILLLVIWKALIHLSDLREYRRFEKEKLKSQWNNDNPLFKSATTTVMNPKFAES
Chain of PD-L1 (Q9NZQ7 19-290): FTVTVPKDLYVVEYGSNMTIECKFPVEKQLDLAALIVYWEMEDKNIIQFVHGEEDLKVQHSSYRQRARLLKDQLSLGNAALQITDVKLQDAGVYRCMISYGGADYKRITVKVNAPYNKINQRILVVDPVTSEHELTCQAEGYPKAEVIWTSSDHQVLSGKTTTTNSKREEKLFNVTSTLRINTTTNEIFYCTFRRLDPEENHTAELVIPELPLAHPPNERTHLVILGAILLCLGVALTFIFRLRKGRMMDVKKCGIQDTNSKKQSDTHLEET
T3 sequence (P05164 279-745 limits assumed): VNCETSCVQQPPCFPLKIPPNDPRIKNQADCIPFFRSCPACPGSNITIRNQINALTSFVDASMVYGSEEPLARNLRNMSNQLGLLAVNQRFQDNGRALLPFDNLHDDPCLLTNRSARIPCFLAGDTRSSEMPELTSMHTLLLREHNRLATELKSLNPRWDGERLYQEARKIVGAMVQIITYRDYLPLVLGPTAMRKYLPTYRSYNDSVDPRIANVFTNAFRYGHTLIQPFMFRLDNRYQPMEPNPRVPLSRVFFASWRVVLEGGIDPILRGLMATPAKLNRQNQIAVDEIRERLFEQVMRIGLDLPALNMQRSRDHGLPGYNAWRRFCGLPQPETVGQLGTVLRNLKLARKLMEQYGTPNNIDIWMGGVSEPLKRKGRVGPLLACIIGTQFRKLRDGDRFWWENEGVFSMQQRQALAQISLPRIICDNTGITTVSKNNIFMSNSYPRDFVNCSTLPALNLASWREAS
T3 sequence (P05164 165-273 limits assumed): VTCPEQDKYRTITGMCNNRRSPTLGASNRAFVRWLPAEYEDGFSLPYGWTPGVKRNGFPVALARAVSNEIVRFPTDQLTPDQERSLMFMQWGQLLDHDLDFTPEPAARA

In the case of “IAR8ILEP(Sar)CS5QERAA (IA[R8]ILEP[Sar]C[S5]QERAA; staple 3-10; not fully specified; printed as IAR8ILEP(Sar)CS5QERAA) [PA-0134]”, the “binding to CTLA-4, in words” value in experiment [1] is reported as “bound CTLA-4”. In addition, in experiment [2], the “binding to C1q (binding curves, half-maximal binding), in words” value is on record as “markedly increased binding to C1q”. For the same substance, the “binding to PD-L1, in words” value in experiment [3] was “dose-dependent binding”. Moreover, the “inhibition of ABO incompatible hemolysis (complement inhibition), in words” value in [4] is on record as “similar”. In addition, in experiment [5], the “inhibition of MPO activity (half-maximal values), in words” value was “reduced inhibition of MPO activity”. In experiment [6], the “binding to MAC-1, in words” value is “minimal binding”. For the same substance, the “total antioxidant capacity, in words” value in experiment [7] was “decreased activity compared to the parent peptide”. Besides, the “binding to C1q, in words” value in experiment [8] was “dose-dependent binding”. Moreover, the “binding to PD-1, in words” value in [9] is reported as “dose-dependent binding”.
